Assay results as given in patent publication US20200317768A1.

Legend:
[1] = target: human FcγRIIIaV extracellular domain, C-terminal His-tag (human) (UniProt P08637); assay: SPR 25C; FcgR bound per captured antibody, relative to parent B3
[2] = target: human FcγRIIaR extracellular domain, C-terminal His-tag (human) (UniProt P12318); assay: as above
Chain of human FcγRIIaR extracellular domain, C-terminal His-tag (human) (P12318 34-217 H167R): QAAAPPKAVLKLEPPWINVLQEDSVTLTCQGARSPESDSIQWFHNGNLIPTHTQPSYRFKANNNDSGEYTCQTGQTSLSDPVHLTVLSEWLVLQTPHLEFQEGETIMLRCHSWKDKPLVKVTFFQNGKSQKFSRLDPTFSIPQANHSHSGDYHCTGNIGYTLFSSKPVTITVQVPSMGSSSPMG

- Binding to human FcgRs (parent B3 = 100) (parent B3 = 100) [1]: 2
- Binding to human FcgRs (parent B3 = 100) (parent B3 = 100) [2]: 8
Substance: GpH7-B3 variant V266F/GpL16-k0 (antibody)
